Test results published in the Human Domainome abundance scans (Beltran et al. 2025).
± gives the uncertainty stated by the source.

B1: Transcriptional regulator ERG, residues 117 to 197; numbered along this chain, P11308 (parent)
chain: NMTTNERRVIVPADPTLWSTDHVRQWLEWAVKEYGLPDVNILLFQNIDGKELCKMTKDDFQRLTPSYNADILLSHLHYLRE
B2: Steroid hormone receptor ERR2, residues 100 to 176; numbered along this chain, O95718 (parent)
chain: KRLCLVCGDIASGYHYGVASCEACKAFFKRTIQGNIEYSCPATNECEITKRRRKSCQACRFMKCLKVGMLKEGVRLD

Variants of: B1
Assay: abundance fitness (aPCA) (normalised: wild type 0, dead -1); higher = more abundant; growth selection in yeast, the domain comes from the species named
Details: Homo sapiens

Variant	abundance fitness
V11I	0.102 ± 0.051
V11S	0.104 ± 0.044
V11R	0.209 ± 0.033
V11L	0.067 ± 0.037
V11K	0.029 ± 0.048
V11E	0.056 ± 0.048
V11D	0.013 ± 0.068
V11Q	-0.017 ± 0.054
V11C	0.106 ± 0.064
V11H	0.321 ± 0.089
V11F	0.078 ± 0.076
V11W	0.2 ± 0.04
V11N	0.063 ± 0.073
V11M	0.087 ± 0.053
V11A	0.102 ± 0.04
V11G	0.05 ± 0.031
V11Y	0.113 ± 0.072
T4R	-0.149 ± 0.037
T4N	-0.028 ± 0.069
T4C	-0.018 ± 0.059
T4P	-0.056 ± 0.056
T4A	-0.099 ± 0.043
T4I	0.054 ± 0.086
T4Y	-0.04 ± 0.078

Variant	abundance fitness
T4M	0.146 ± 0.052
T4W	0.01 ± 0.047
T4G	-0.042 ± 0.032
T4F	0.079 ± 0.062
T4L	-0.025 ± 0.044
T4E	0.035 ± 0.045
T4H	-0.151 ± 0.075
T4Q	-0.126 ± 0.054
T4D	0.04 ± 0.056
T4K	-0.043 ± 0.058
R7T	0.021 ± 0.048
R7P	0.049 ± 0.056
R7H	-0.115 ± 0.078
R7C	-0.12 ± 0.068
R7W	-0.053 ± 0.045
R7I	-0.208 ± 0.074
R7D	0.037 ± 0.057
R7K	0.018 ± 0.049
R7Q	0.016 ± 0.056
R7N	-0.09 ± 0.074
R7A	0 ± 0.037
R7L	0.087 ± 0.039
R7S	-0.047 ± 0.045
R7E	0.06 ± 0.045

Variant	abundance fitness
R7V	-0.045 ± 0.038
R7M	0.044 ± 0.053
R7G	-0.003 ± 0.032
R7Y	-0.127 ± 0.076
E6I	0.007 ± 0.091
E6N	0.017 ± 0.068
E6L	0.006 ± 0.042
E6Y	-0.089 ± 0.091
E6S	-0.107 ± 0.047
E6D	-0.085 ± 0.073
E6R	-0.088 ± 0.036
E6T	-0.017 ± 0.055
E6Q	0.002 ± 0.067
E6C	-0.242 ± 0.058
E6H	0.004 ± 0.083
E6V	-0.142 ± 0.042
E6W	0.037 ± 0.041
E6P	0.033 ± 0.06
E6A	-0.139 ± 0.043
E6M	0.024 ± 0.059
E6G	0.031 ± 0.029
E6F	0.002 ± 0.082
A13C	0.009 ± 0.067
I10L	-0.058 ± 0.047

Variant	abundance fitness
I10H	0.138 ± 0.085
I10A	0.124 ± 0.039
I10K	0.109 ± 0.055
I10V	0.03 ± 0.04
I10Y	-0.013 ± 0.1
I10P	0.214 ± 0.06
I10F	-0.06 ± 0.077
I10W	-0.089 ± 0.049
I10S	0.116 ± 0.046
I10E	0.21 ± 0.043
I10T	0.264 ± 0.062
I10R	0.093 ± 0.035
I10C	-0.026 ± 0.066
I10M	0.038 ± 0.053
I10G	0.227 ± 0.03
I10Q	0.129 ± 0.056
I10D	0.328 ± 0.066
V9L	0.096 ± 0.035
V9I	-0.034 ± 0.044
V9M	0.132 ± 0.049
V9S	0.137 ± 0.036
V9T	0.054 ± 0.043
V9C	0.046 ± 0.063
V9W	0.038 ± 0.07

Variant	abundance fitness
V9D	0.269 ± 0.052
V9N	0.099 ± 0.044
V9Q	0.243 ± 0.055
V9E	0.207 ± 0.075
V9A	0.12 ± 0.045
V9P	0.292 ± 0.051
V9H	0.034 ± 0.048
V9K	0.16 ± 0.06
V9F	0.075 ± 0.045
V9R	0.113 ± 0.043
V9Y	-0.062 ± 0.044
M2Q	0.037 ± 0.07
M2Y	-0.139 ± 0.11
M2K	-0.144 ± 0.059
M2V	-0.417 ± 0.054
M2G	-0.337 ± 0.044
M2W	-0.17 ± 0.053
M2E	-0.213 ± 0.058
M2F	-0.048 ± 0.084
M2T	-0.033 ± 0.051
M2R	-0.049 ± 0.037
M2N	-0.028 ± 0.075
M2S	-0.105 ± 0.051
M2C	-0.166 ± 0.086

Variant	abundance fitness
M2D	-0.195 ± 0.11
M2P	0.004 ± 0.07
M2H	-0.046 ± 0.095
M2A	-0.296 ± 0.057
M2I	-0.143 ± 0.084
M2L	-0.042 ± 0.053
R8I	-0.323 ± 0.077
R8W	-0.881 ± 0.19
R8E	0.09 ± 0.068
R8L	-0.29 ± 0.054
R8A	-0.084 ± 0.056
R8T	-0.022 ± 0.053
R8M	-0.263 ± 0.083
R8K	0.104 ± 0.064
R8G	-0.207 ± 0.067
R8D	0.116 ± 0.067
R8P	-0.137 ± 0.066
R8Y	-0.496 ± 0.11
R8V	-0.478 ± 0.083
R8Q	-0.011 ± 0.063
R8N	0.028 ± 0.064
R8H	-0.098 ± 0.073
R8S	-0.117 ± 0.052
R8C	-0.112 ± 0.08

Variant	abundance fitness
R8F	-0.076 ± 0.068
P12G	-0.136 ± 0.033
P12L	-0.505 ± 0.058
P12K	-0.215 ± 0.058
P12A	-0.176 ± 0.047
P12D	-0.042 ± 0.064
P12Y	-0.45 ± 0.12
P12M	-0.65 ± 0.1
P12T	-0.343 ± 0.077
P12R	-0.248 ± 0.038
P12S	-0.209 ± 0.049
P12N	-0.027 ± 0.068
P12I	-1.37 ± 0.5
P12E	-0.019 ± 0.045
P12V	-0.631 ± 0.067
P12H	-0.452 ± 0.12
P12W	-0.15 ± 0.044
P12C	-0.644 ± 0.12
P12F	-0.486 ± 0.099
T3F	-0.007 ± 0.073
T3S	0.055 ± 0.046
T3E	-0.045 ± 0.055
T3D	-0.05 ± 0.066
T3M	0.029 ± 0.067

Variant	abundance fitness
T3I	-0.014 ± 0.08
T3L	-0.094 ± 0.046
T3Q	-0.043 ± 0.059
T3A	-0.043 ± 0.039
T3V	-0.08 ± 0.044
T3Y	-0.141 ± 0.078
T3G	-0.022 ± 0.035
T3P	-0.162 ± 0.071
T3K	-0.109 ± 0.065
T3N	-0.025 ± 0.078
T3R	-0.05 ± 0.036
T3H	-0.127 ± 0.086
T3C	-0.088 ± 0.066
N1M	-0.087 ± 0.071
N1Y	0.029 ± 0.069
N1D	-0.071 ± 0.081
N1F	0.012 ± 0.076
N1K	-0.114 ± 0.09
N1H	-0.279 ± 0.085
N1I	0.007 ± 0.081
N1G	-0.154 ± 0.078
N1S	-0.097 ± 0.066
N1C	-0.057 ± 0.068
N1A	-0.144 ± 0.092

Variant	abundance fitness
N1R	-0.054 ± 0.072
N1T	0.002 ± 0.072
N1E	-0.038 ± 0.12
N1W	-0.168 ± 0.081
N1Q	-0.011 ± 0.17
N5C	-0.01 ± 0.066
N5F	0.075 ± 0.079
N5T	-0.071 ± 0.052
N5Y	-0.105 ± 0.089
N5M	0.085 ± 0.05
N5D	0.079 ± 0.068
N5V	-0.004 ± 0.044
N5I	0.036 ± 0.092
N5P	-0.092 ± 0.058
N5G	-0.01 ± 0.034
N5A	-0.06 ± 0.043
N5S	-0.119 ± 0.046
N5H	-0.071 ± 0.078
N5K	0.001 ± 0.056
N5R	-0.044 ± 0.037
N5W	-0.003 ± 0.049
N5E	0.064 ± 0.047

Variants of: B2
Assay: as above
Details: Homo sapiens

Variant	abundance fitness
D77S	-0.059 ± 0.077
D77N	-0.166 ± 0.11
D77L	-0.168 ± 0.088
D77F	-0.363 ± 0.22
D77W	-0.287 ± 0.12
D77Q	0.26 ± 0.13
D77T	-0.04 ± 0.095
D77P	0.171 ± 0.1
D77I	-0.572 ± 0.19
D77H	0.082 ± 0.12
D77G	-0.194 ± 0.064
D77V	-0.111 ± 0.068
D77Y	-0.29 ± 0.2
D77A	-0.131 ± 0.073
D77E	-0.096 ± 0.082
D77C	-0.348 ± 0.18
D77M	-0.35 ± 0.14
D77R	-0.11 ± 0.058
E72L	-0.424 ± 0.066
E72P	-0.029 ± 0.065
E72G	-0.122 ± 0.047
E72D	-0.012 ± 0.086
E72A	-0.088 ± 0.061
E72Y	-0.501 ± 0.15

Variant	abundance fitness
E72N	0.02 ± 0.092
E72C	-0.262 ± 0.089
E72Q	-0.16 ± 0.075
E72T	-0.104 ± 0.063
E72H	-0.368 ± 0.18
E72W	-0.503 ± 0.098
E72I	-0.299 ± 0.14
E72F	-0.556 ± 0.15
E72M	-0.448 ± 0.12
E72S	-0.051 ± 0.054
E72R	-0.355 ± 0.057
K71Q	-0.153 ± 0.073
K71C	-0.006 ± 0.069
K71P	-0.19 ± 0.084
K71E	-0.07 ± 0.054
K71T	-0.106 ± 0.075
K71I	-0.047 ± 0.09
K71L	-0.148 ± 0.047
K71G	-0.166 ± 0.044
K71A	-0.109 ± 0.054
K71W	-0.242 ± 0.058
K71Y	-0.222 ± 0.12
K71F	-0.305 ± 0.11
K71M	-0.063 ± 0.061

Variant	abundance fitness
K71N	-0.147 ± 0.093
K71S	-0.025 ± 0.054
K71V	-0.02 ± 0.045
K71D	-0.102 ± 0.08
G73H	-0.104 ± 0.12
G73L	-0.016 ± 0.046
G73S	-0.031 ± 0.054
G73I	-0.441 ± 0.19
G73V	-0.132 ± 0.05
G73C	-0.126 ± 0.084
G73N	-0.107 ± 0.11
G73D	0.133 ± 0.079
G73A	0.08 ± 0.049
G73R	-0.056 ± 0.043
G73E	0.118 ± 0.052
G73Q	0.046 ± 0.072
G73K	0.017 ± 0.068
G73Y	-0.6 ± 0.22
G73F	-0.369 ± 0.14
G73M	0.007 ± 0.069
G73P	0.019 ± 0.071
G73W	-0.031 ± 0.057
G73T	0.002 ± 0.063
V74N	-0.036 ± 0.11

Variant	abundance fitness
V74C	-0.501 ± 0.13
V74P	-0.025 ± 0.094
V74E	0.08 ± 0.054
V74Y	-0.319 ± 0.16
V74M	-0.13 ± 0.075
V74K	-0.124 ± 0.078
V74R	-0.191 ± 0.046
V74T	-0.129 ± 0.08
V74S	-0.017 ± 0.052
V74G	-0.089 ± 0.039
V74L	-0.004 ± 0.05
V74I	-0.026 ± 0.088
V74D	0.03 ± 0.091
V74F	-0.171 ± 0.091
V74A	0.126 ± 0.05
L70W	-0.032 ± 0.053
L70Y	-0.646 ± 0.17
L76E	0.146 ± 0.053
L76K	-0.028 ± 0.07
L76A	0.124 ± 0.057
L76C	-0.099 ± 0.11
L76G	0.055 ± 0.043
L76P	-0.079 ± 0.08
L76Q	-0.007 ± 0.061

Variant	abundance fitness
L76T	-0.024 ± 0.083
L76Y	-0.001 ± 0.12
L76S	-0.07 ± 0.062
L76D	0.08 ± 0.09
L76N	0.056 ± 0.12
L76I	-0.037 ± 0.15
L76M	-0.001 ± 0.067
L76V	0.058 ± 0.045
L76W	-0.095 ± 0.053
R75C	0.117 ± 0.067
R75D	0.04 ± 0.07
R75A	0.035 ± 0.046
R75T	0.062 ± 0.059
R75W	-0.1 ± 0.052
R75I	-0.051 ± 0.095
R75Q	0.153 ± 0.054
R75P	0.031 ± 0.068
R75V	0.002 ± 0.042
R75N	-0.074 ± 0.1
R75F	-0.014 ± 0.079
R75K	0.075 ± 0.057
R75E	0.076 ± 0.051
R75Y	-0.102 ± 0.095
R75H	-0.165 ± 0.11
